Results published in patent US20260116983A1 (University of California, published 2026).
Substitutions are numbered along the chain they refer to.

B1: 11857 HC1 + LC1 (humanized) (antibody, V domains shown)
VH: EVQLVQSGAEVKKPGATVKISCKVSGYTFTDYYMNWVQQAPGKSLEWMGNINPNNGGTDYNQKFQGRVTITADKSTSTAYMELSSLRSEDTAVYYCARSYGSRFPYWGLGTLVTVSS
VL: DIQMTQSPSSLSASVGDRVTITCRASQDITNYLSWYQQKPGGTVKLLLYYTAVLQSGFPSRFSGSGSGADYTLTISSLQPEDFATYYCQQGHTLPWTFGGGTKVEIK
notes: detected with anti-human Fc antibody
B2: 11857 HC2 + LC1 (humanized) (antibody, V domains shown)
VH: B1 VH with T17S, I20V, V24A, Q38R, N61S, A72V, K74T, T76A
VL: B1 VL
notes: as for B1
B3: 11857 HC3 + LC1 (humanized) (antibody, V domains shown)
VH: EVQLVQSGAEVKKPGASVKVSCKASGYTFTDYYMNWVRQAPGKSLEWMGNINPNNGGTDYNQKFQGRVTLTVDTSISTAYMELSRLRSDDTVVYYCARSYGSRFPYWGLGTLVTVSS
VL: B1 VL
notes: as for B1
B4: 11857 HC2 + LC2 (humanized) (antibody, V domains shown)
VH: B3 VH with N61S, L70I, I76A, R85S, D89E, V92A
VL: B1 VL with L48I, Y49F, Y71F, F83V
notes: as for B1
B5: 11857 HC1 + LC3 (humanized) (antibody, V domains shown)
VH: B1 VH
VL: B1 VL with Y36F, L48I, Y71F
notes: as for B1
B6: 11857 HC3 + LC2 (humanized) (antibody, V domains shown)
VH: B3 VH
VL: B1 VL with L48I, Y49F, Y71F, F83V
B7: 11857 HC1 + LC2 (humanized) (antibody, V domains shown)
VH: B1 VH
VL: B1 VL with L48I, Y49F, Y71F, F83V
notes: as for B1
B8: Antibody 8163 (antibody, human IgG1, V domains shown)
VH: EVQLVESGGGLVQPGESLTLSCDSNEFDFPSHDMSWVRKTPEKRLELVAAIDSDGGLTYYSNSRERRFIISRDNTKNTLYLQMRSLRSEDTALYYCARRRASYWYFDVWGTGTTVTVSS
VL: DILLTQSPAILPVSPGERVSFSCRASQNIGTSIHWYQQRTNGSPRLLIKYASESISGIPSRFSGSGSGTDFTLSINGVESEDIGDYYCQQSNSWPTFGGGTKLEIK
notes: Chimeric: mouse VH/VL linked to Herceptin (trastuzumab) human IgG1 / kappa constant regions
B9: 3159 HC1 + LC3 (humanized) (antibody, V domains shown)
VH: QVTLRESGPALVKPTQTLTLTCTLSGFSLSTSGMGVSWIRQPPGKALEWLAHIYWDDDKRYSTSLKTRLTISKDASKDQVVLTMTNMDTVDTATYYCGRRVRNYFSGTSYWYFDVWGTGTLVTVSS
VL: DIVMTQSPLSLPVTPGEPASISCRSSQNILHRTGNTYLDWYLQKPGQSPQLLIYKVSNRFSGVPDRFSGSGSGTDFTLKISRVEAEDVGVYYCFQGSYVPFTFGQGTKLEIK
notes: as for B1
B10: 3159 HC2 + LC1 (humanized) (antibody, V domains shown)
VH: B9 VH with R5K, A10V, Q16E, L24V, A46G, T63P, T67S
VL: B9 VL with S7T, P12S, E17Q, R24K, D39E, S48P
notes: as for B1
B11: 3159 HC2 + LC2 (humanized) (antibody, V domains shown)
VH: B9 VH with R5K, A10V, Q16E, L24V, A46G, T63P, T67S
VL: B9 VL with I2V, P15L, E17Q, D39E, Y41F, L42Q, K44R, Q50R
notes: as for B1
B12: 3159 HC3 + LC2 (humanized) (antibody, V domains shown)
VH: B9 VH with V2I, R5K, A10T, S62N, T63P, T67S, S72T
VL: B9 VL with I2V, P15L, E17Q, D39E, Y41F, L42Q, K44R, Q50R
notes: as for B1
B13: 3159 HC3 + LC1 (humanized) (antibody, V domains shown)
VH: B9 VH with V2I, R5K, A10T, S62N, T63P, T67S, S72T
VL: B9 VL with S7T, P12S, E17Q, R24K, D39E, S48P
notes: as for B1
B14: 3159 HC1 + LC1 (humanized) (antibody, V domains shown)
VH: B9 VH
VL: B9 VL with S7T, P12S, E17Q, R24K, D39E, S48P
notes: as for B1
B15: 3159 HC1 + LC2 (humanized) (antibody, V domains shown)
VH: B9 VH
VL: B9 VL with I2V, P15L, E17Q, D39E, Y41F, L42Q, K44R, Q50R
notes: as for B1
B16: 3159 HC3 + LC3 (humanized) (antibody, V domains shown)
VH: B9 VH with V2I, R5K, A10T, S62N, T63P, T67S, S72T
VL: B9 VL
notes: as for B1
B17: 3159 HC2 + LC3 (humanized) (antibody, V domains shown)
VH: B9 VH with R5K, A10V, Q16E, L24V, A46G, T63P, T67S
VL: B9 VL
notes: as for B1
B18: Antibody 3595 (antibody, human IgG1, V domains shown)
VH: EVQLRQSGPELVKPGASVKISCKASGYTFTDYYMNWVKQSHEKSLEWIGNINPNNGGTDYNQKFKGKATLTVDKSSSTAYMELRSLTSEDSAVYYCARSYGSRFPYWGLGTLVTVSA
VL: DIQMTQTTSSLSASLGDRVTISCRASQDITNYLSWYQQKPDGTVKLLIFYTSFLQSGVPLRFSGSGSGADYSLTISNLEQEDFATYFCQQGHTLPWTFGGGTKLEIK
notes: as for B8
B19: Antibody 3159 (antibody, human IgG1, V domains shown)
VH: QVTLKESGPGILQSSLTLSLTCSLSGFSLSTSGMGVSWIRQPSGKGLEWLAHIYWDDDKRYNPSLKTRLTISKDASRDQVFLKIISVDTADTGTYYCGRRVRNYFSGTSYWYFDVWGTGTTVTVSS
VL: DVLMTQTPLSLSVSLGDQASISCRSSQNILHRTGNTYLEWYLQKPGQSPKLLIYKVSNRFSGVPDRFSGSGSGTDFTLKISRLEAEDLGVYYCFQGSYVPFTFGSGTKLEMK
notes: as for B8

Columns and labels:
[1] = target: T1, cynomolgus uPAR (recombinant) (cynomolgus monkey, UniProt Q9GK78 23-303, limits assumed); experiment: BLI (Octet HTX)
T1 construct: also called cyno uPAR; AF647-cyno uPAR
T1 sequence (looked up): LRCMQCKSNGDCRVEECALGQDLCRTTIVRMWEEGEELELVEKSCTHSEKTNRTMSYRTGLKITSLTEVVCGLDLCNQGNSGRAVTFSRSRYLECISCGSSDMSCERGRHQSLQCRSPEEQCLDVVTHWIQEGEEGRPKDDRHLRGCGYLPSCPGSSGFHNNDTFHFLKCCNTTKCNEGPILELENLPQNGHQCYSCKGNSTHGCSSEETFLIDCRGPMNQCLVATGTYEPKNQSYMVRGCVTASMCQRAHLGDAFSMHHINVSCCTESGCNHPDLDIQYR
Procedure: (§1) Kinetic constant ranges for Octet HTX were between 1 mM to 10 pM.

[2] = target: T2, human uPAR (recombinant protein used in ELISA and BLI) (human, UniProt Q03405 23-305, limits assumed); experiment: BLI (Octet HTX)
T2 construct: Whole entry named; also called biotinylated human uPAR
T2 sequence (Q03405 23-305 limits assumed): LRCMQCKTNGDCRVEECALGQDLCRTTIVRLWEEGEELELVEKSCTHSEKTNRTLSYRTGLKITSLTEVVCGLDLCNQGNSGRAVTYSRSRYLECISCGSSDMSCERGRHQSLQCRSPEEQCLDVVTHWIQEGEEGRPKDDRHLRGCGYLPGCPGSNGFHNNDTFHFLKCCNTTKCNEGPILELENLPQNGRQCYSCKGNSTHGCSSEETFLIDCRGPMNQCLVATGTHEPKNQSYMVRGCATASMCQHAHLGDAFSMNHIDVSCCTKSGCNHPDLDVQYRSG
Procedure: as §1

[3] = target: T3, human uPAR displayed on the surface of MDA-MB-231 cells (human, UniProt Q03405 23-305); experiment: flow cytometry on MDA-MB-231 cells
T3 construct: whole, on cells; also called cell-surface uPAR; cellular uPAR
T3 sequence (Q03405 23-305): as the sequence (Q03405 23-305 limits assumed) above

[4] = target: T2, human uPAR (recombinant protein used in …); experiment: ELISA, plate-coated human uPAR
Procedure: (§2) To ensure the cross-reactivity of the 12 lead candidates was maintained with the Herceptin constant region, their binding to human and cyno uPAR was evaluated by ELISA (FIG. 3A).
(§3) Nunc MaxiSorp™ flat-bottom 96-well plates were coated with human or cyno uPAR (3.19 μg/mL) at 4° C. overnight, and plates were washed with wash buffer and blocked with 5% non-fat dry milk. A standard log serial dilution of each antibody candidate was added to the uPAR-coated plates and incubated at 4° C. overnight. Plates were washed three times and incubated with 50 μL of HRP-conjugated goat anti-human (H+L) antibody (Biorad). After a two-hr incubation, plates were washed, and 100 μL of 1-Step™ Turbo TMB-ELISA Substrate Solution (Thermo Scientific) was added to each well. The reaction was quenched with 2M H₂SO₄ for 5 min at room temperature, and the optical density of each well was measured at 450 nm using a SpectraMax190 microplate reader.

[5] = target: T3, human uPAR displayed on the surface of …; experiment: cell-based or functional assay
[6] = target: T1, cynomolgus uPAR (recombinant); experiment: ELISA, plate-coated cyno uPAR
Procedure: as §2, §3

[7] = target: T3, human uPAR displayed on the surface of …; experiment: flow cytometry (FACS) on MDA-MB-231 cells
Text: Antibodies generated by immunizing animals with suPAR, which lacks the cell surface anchoring motif, can target protein regions that are not accessible for membrane-bound uPAR. […] Thus, FACS was applied to evaluate the cell-surface uPAR recognition by each antibody candidate under different concentrations of MDA-MB-231 cells, a triple-negative breast cancer cell line with high uPAR expression (FIG. 2).
MDA-MB-231 cells were harvested with TrypleE and resuspended in FACS buffer (PBS+1% BSA) to 2×10⁶ cells/mL before being aliquoted to a 96-well plate (100 μL, 2×10⁵ cells/well). Cells were pelleted by centrifuging the microplate for 5 min at 400 RCF and resuspended in PBS containing serially diluted antibodies to a maximum concentration of 600 nM, followed by a 50 min incubation at 4° C. Cells were then washed three times with PBS and incubated with an AlexaFluor488-conjugated goat anti-human IgG for 50 min at 4° C. in the dark. Finally, cells were washed twice with FACS buffer and resuspended in 80 μL for FACS analysis in a Bio-rad S3e Cell Sorter.

[8] = target: T3, human uPAR displayed on the surface of …; experiment: cell-based or functional assay; remark: listed apart in the source

Binder	Kd [1]	Kd [2]	EC50 [3]	further results
B1	69.7 nM	127 nM	0.695 µg/mL	
B2	307 nM	125 nM	0.432 µg/mL	
B3	83.9 nM	147 nM	0.304 µg/mL	
B4	59.5 nM	45.7 nM	0.212 µg/mL	
B5			1.21 µg/mL	
B6	59.6 nM	75.6 nM		
B7	32.4 nM	53.4 nM	0.223 µg/mL	
B8				EC50 [4]: 0.41 nM; ADCC PBMCs EC50, fold lower than 2G10 [5]: 10 to 96 fold; EC50 [6]: 0.15 nM; Cellular recognition Max % [7]: 2330%; EC50 [7]: 0.69 nM; ADC Cytotoxicity EC50 [8]: 0.57 nM; ADC Cytotoxicity Max % [8]: 28.7%; ADCC NK-92 EC50 [8]: 1.14 nM; ADCC NK-92 Max % [8]: 18.8%; ADCC PBMCs EC50 [8]: 0.09 nM; ADCC PBMCs Max % [8]: 57.5%; Adhesion blocking EC50 [8]: 5400 nM
B9	162 nM	5.58 nM	0.27 µg/mL	
B10	41.1 nM	< 0.01 nM	0.379 µg/mL	
B11	404 nM	< 0.01 nM	0.32 µg/mL	
B12	2240 nM	4.66 nM	0.214 µg/mL	
B13	202 nM	< 0.01 nM	0.488 µg/mL	
B14	556 nM	6.79 nM	0.187 µg/mL	
B15	5870 nM	< 0.01 nM	0.518 µg/mL	
B16	58.5 nM	7.39 nM	0.185 µg/mL	
B17	255 nM	< 0.01 nM	0.205 µg/mL	
B18				EC50 [4]: 0.05 nM; EC50 [6]: 0.1 nM; Cellular recognition Max % [7]: 2280%; EC50 [7]: 0.453 nM; ADC Cytotoxicity EC50 [8]: 0.66 nM; ADC Cytotoxicity Max % [8]: 34.8%; ADCC NK-92 EC50 [8]: 0.2 nM; ADCC NK-92 Max % [8]: 21.9%; ADCC PBMCs EC50 [8]: 0.1 nM; ADCC PBMCs Max % [8]: 55.6%; Adhesion blocking EC50 [8]: > 10000 nM
B19	934 nM	< 0.01 nM	0.188 µg/mL	EC50 [4]: 0.53 nM; EC50 [6]: 0.27 nM; Cellular recognition Max % [7]: 1830%; EC50 [7]: 0.916 nM; ADC Cytotoxicity EC50 [8]: 0.75 nM; ADC Cytotoxicity Max % [8]: 32%; ADCC NK-92 EC50 [8]: 0.887 nM; ADCC NK-92 Max % [8]: 28.2%; ADCC PBMCs EC50 [8]: 0.11 nM; ADCC PBMCs Max % [8]: 47.4%; Adhesion blocking EC50 [8]: 1610 nM
